According to paper doi:10.1101/2023.08.07.552313 (bioRxiv, 2023):

Target: NEIL1 DNA glycosylase (Homo sapiens (; the 390 aa …, UniProt Q96FI4)
Experiment: two-hybrid

Sequence of NEIL1 DNA glycosylase (Homo sapiens (Q96FI4 whole entry): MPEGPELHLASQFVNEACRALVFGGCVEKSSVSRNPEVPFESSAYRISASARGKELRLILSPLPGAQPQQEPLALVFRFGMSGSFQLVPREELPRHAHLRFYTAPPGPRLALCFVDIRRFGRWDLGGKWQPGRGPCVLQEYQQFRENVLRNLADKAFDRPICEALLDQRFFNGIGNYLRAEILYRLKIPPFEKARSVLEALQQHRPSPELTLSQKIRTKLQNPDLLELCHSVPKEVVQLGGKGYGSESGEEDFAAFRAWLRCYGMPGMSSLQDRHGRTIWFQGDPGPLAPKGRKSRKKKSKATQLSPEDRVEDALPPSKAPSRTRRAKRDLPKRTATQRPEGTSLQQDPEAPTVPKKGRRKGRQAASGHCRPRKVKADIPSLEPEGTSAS

B1: A5 nanobody (anti-NEIL1 nanobody) (VHH)
VHH: EVQLQASGGGFVQPGGSLRLSCAASGATSERDIMGWFRQAPGKEREFVSAISYEPGGWHYYADSVKGRFTISRDNSKNTVYLQMNSLRAEDTATYYCAWQEIMYGEAYWRYWGQGTQVTVSS
- binding result: binds
